Measurements reported in US20230012273A1 (Boehringer Ingelheim, published 2023).

What was measured:
[1] = molecular target: T1, cynoSIRPα (EGM_02252), Extracellular Domain + His-Tag (cynomolgus monkey); test: SPR, antibody captured on Protein A/G, ECD-His analyte
T1 construct: also called CySIRPα EGM_02252; not shown: His-Tag
T1 chain: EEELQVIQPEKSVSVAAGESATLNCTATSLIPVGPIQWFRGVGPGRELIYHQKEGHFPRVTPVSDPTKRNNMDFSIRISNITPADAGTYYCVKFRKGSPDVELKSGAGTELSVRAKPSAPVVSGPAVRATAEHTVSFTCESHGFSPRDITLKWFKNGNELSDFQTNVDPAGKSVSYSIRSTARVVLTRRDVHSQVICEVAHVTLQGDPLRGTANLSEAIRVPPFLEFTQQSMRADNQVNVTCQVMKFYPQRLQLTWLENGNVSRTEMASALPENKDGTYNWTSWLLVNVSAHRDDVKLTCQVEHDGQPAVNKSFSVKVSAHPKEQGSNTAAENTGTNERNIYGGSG
Experimental: (§1) The binding kinetics of anti-SIRPα antibodies to various SIRPα analytes are determined by surface plasmon resonance (SPR) using a Biacore 8K+(Cytiva). 1×HBS-EP+(Cytiva) is used as running buffer and for all the dilutions unless stated otherwise. The Series S CM5 sensorchip is activated with a 1:1 mixture of 0.1 M NHS (N-hydroxysuccinimide) and 0.4 M EDC (1-Ethyl-3-(3-dimethylaminopropyl) carbodiimide hydrochloride) for 420 seconds at a flow rate of 10 μl/min and immobilized with Protein A/G (Thermo Scientific, 10 μg/ml in 10 mM acetate pH 4.5) for 420 seconds at a flowrate of 10 μl/min resulting in approximately 3000 RU of Protein A/G on the surface. The sensorchip is then deactivated with 1 M ethanolamine HCl pH 8.5 for 420 seconds at a flowrate of 10 μl/min.
(§2) Antibodies (approximately 1 ug/ml) are captured on the Protein A/G surface for 60 seconds at a flowrate of 10 μl/min resulting in capture levels of approximately 240 RU. Dilutions of each SIRP protein (Extracellular Domain+His-Tag, with the concentrations as indicated) are injected as analytes over the captured antibody for 300 seconds of association at a flowrate of 30 μl/min, followed by a dissociation for 600 seconds.

[2] = molecular target: T2, Human SIRPαV1 (NP_542970.1), Extracellular Domain + His-Tag (human, UniProt P78324 31-373); test: SPR, antibody captured on Protein A/G, ECD-His analyte, 1:1 fit
T2 construct: also called huSIRPαV1; hSIRPαV1; not shown: His-Tag
Experimental: as §1, §2
(§3) The above procedures are used to measure binding properties of antibodies of the present disclosure. For each analyte used, the highest concentration was as indicated in Example 3 (see Table 36).

[3] = molecular target: T3, Human SIRPαV2 (CAA71403.1), Extracellular Domain + His-Tag (human, UniProt P78324 31-373); test: as above
T3 construct: also called huSIRPαV2; hSIRPαV2; not shown: His-Tag
Experimental: as §1, §2, §3

[4] = molecular target: T4, cynoSIRPα (NP_001271679), Extracellular Domain + His-Tag (cynomolgus monkey); test: as above
T4 construct: also called CySIRPα NP_001271679; not shown: His-Tag
T4 chain: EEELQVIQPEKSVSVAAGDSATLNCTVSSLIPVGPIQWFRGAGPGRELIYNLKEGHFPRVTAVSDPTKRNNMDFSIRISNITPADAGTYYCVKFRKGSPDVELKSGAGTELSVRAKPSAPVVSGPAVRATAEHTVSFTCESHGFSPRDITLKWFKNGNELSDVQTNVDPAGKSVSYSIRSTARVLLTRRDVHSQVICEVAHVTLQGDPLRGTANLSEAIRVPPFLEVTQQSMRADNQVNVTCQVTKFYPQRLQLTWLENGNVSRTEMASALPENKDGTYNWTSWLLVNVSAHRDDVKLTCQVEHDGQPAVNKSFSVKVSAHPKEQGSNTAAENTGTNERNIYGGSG
Experimental: as §1, §2, §3

[5] = molecular target: T5, cynoSIRPα (XP_015313155), Extracellular Domain + His-Tag (cynomolgus monkey); test: as above
T5 construct: also called CySIRPα XP_015313155; not shown: His-Tag
T5 chain: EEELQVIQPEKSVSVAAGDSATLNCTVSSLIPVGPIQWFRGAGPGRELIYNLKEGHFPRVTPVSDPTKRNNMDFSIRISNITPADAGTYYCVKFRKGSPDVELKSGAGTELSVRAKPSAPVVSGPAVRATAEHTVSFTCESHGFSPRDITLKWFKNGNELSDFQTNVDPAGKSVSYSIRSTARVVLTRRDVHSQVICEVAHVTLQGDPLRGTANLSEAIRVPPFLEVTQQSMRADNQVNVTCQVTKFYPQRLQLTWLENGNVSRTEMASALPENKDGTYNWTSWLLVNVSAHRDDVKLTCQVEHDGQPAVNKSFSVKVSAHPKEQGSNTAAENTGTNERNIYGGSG
Experimental: as §1, §2, §3

T3 sequence (P78324 other isoform, or with tags, fused parts or gaps): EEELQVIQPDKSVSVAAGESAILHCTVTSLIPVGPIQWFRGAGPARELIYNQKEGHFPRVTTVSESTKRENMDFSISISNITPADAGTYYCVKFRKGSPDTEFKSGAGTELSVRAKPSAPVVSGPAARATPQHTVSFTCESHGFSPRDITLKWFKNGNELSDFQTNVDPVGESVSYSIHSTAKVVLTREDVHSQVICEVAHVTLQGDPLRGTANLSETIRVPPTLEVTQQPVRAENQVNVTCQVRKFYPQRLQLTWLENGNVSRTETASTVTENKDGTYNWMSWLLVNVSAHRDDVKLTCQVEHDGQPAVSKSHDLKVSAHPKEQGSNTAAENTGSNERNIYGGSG
T2 sequence (P78324 other isoform, or with tags, fused parts or gaps): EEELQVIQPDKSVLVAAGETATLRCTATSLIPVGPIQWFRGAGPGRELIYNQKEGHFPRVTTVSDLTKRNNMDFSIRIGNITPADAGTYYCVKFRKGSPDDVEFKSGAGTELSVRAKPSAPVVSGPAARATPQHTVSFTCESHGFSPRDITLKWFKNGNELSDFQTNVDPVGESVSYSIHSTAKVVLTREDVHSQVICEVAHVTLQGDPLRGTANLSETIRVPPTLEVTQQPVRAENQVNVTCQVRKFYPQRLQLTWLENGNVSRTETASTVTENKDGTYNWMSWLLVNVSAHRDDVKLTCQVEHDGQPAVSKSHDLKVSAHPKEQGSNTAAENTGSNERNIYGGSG

B1: Antibody E1 (antibody, human IgG1, kappa, L234A L235A, V domains shown)
VH: QVQLQESGPGLVRPSETLSLTCTVSGGSIRNYYWSWIRQPPGKGLEWIGFIYYNGRTFYNPSLKSRVTISLDMSINQFSLKMTSVTAADTAVYYCARVRAYSGIGLDGTDVWGQGTTVTVSS
VL: DIVMTQSPLSLPVTPGEPASISCKSSQSLLYSNGYAYLDWYLQRPGQSPQLLIYQGSNRASGVPDRFSGSGSGTDFTLKISRVEAEDVGVFYCMQALQTPLTFGGGTKVEIKR
binding result [1]: no binding (tested: 1000 nM)
Kd [2]: 0.72 nM
koff [2]: 0.000299 s⁻¹
kon [2]: 414000 M⁻¹ s⁻¹
Kd [3]: 0.63 nM
koff [3]: 0.00033 s⁻¹
kon [3]: 523000 M⁻¹ s⁻¹
Kd [4]: 17.9 nM
koff [4]: 0.00327 s⁻¹
kon [4]: 183000 M⁻¹ s⁻¹
Kd [5]: 16.7 nM
koff [5]: 0.00317 s⁻¹
kon [5]: 190000 M⁻¹ s⁻¹

B2: Antibody E8 (antibody, human IgG1, kappa, L234A L235A, V domains shown)
VH: QVQLQESGPGLVRPSETLSLTCTVSGGSIRNYYWSWIRQPPGKGLEWMGFIYDNGRTFYNPSLKSRVTISLDMSMNQFSLKMTSVTAADTAVYYCARVRAYSGIGLDGTDVWGQGTTVTVSS
VL: DIVMTQSPLSLPVTPGEPASISCKSSQSLLYSNGYAYLDWYLQRPGQSPQLLIYQGSNRASGVPDRFSGSGSGTDFTLKISRVEAEDVGVFYCMQALQTPLTFGGGTKVEIKR
binding result [1]: no binding (tested: 1000 nM)
Kd [2]: 1.21 nM
koff [2]: 0.00039 s⁻¹
kon [2]: 322000 M⁻¹ s⁻¹
Kd [3]: 0.54 nM
koff [3]: 0.000236 s⁻¹
kon [3]: 435000 M⁻¹ s⁻¹
Kd [4]: 17.7 nM
koff [4]: 0.0036 s⁻¹
kon [4]: 204000 M⁻¹ s⁻¹
Kd [5]: 16.6 nM
koff [5]: 0.00344 s⁻¹
kon [5]: 207000 M⁻¹ s⁻¹

B3: Antibody E2 (antibody, human IgG1, kappa, L234A L235A, V domains shown)
VH: QVQLQESGPGLVRPSETLSLTCTVSGGSIRNYYWSWIRQPPGKGLEWIGFIYYNGRTFYNPSLKSRVTISLDMSINQFSLKMTSVTAADTAVYYCARVRAYSGIGLDGTDVWGQGTTVTVSS
VL: DIVMTQSPLSLPVTPGEPASISCKSSQSLLYSNGYAYLDWYLQRPGQSPQLLIYLGSNRASGVPDRFSGSGSGTDFTLKISRVEAEDVGVYYCMQALQTPLTFGGGTKVEIKR
binding result [1]: no binding (tested: 1000 nM)
Kd [2]: 0.91 nM
koff [2]: 0.000419 s⁻¹
kon [2]: 459000 M⁻¹ s⁻¹
Kd [3]: 0.69 nM
koff [3]: 0.000367 s⁻¹
kon [3]: 535000 M⁻¹ s⁻¹
Kd [4]: 20.7 nM
koff [4]: 0.00526 s⁻¹
kon [4]: 254000 M⁻¹ s⁻¹
Kd [5]: 19.7 nM
koff [5]: 0.00512 s⁻¹
kon [5]: 260000 M⁻¹ s⁻¹

B4: Antibody E4 (antibody, human IgG1, kappa, L234A L235A, V domains shown)
VH: QVQLQESGPGLVRPSETLSLTCTVSGGSIRNYYWSWIRQPPGKGLEWIGFIYYNGRTFYNPSLKSRVTISLDMSKNQFSLKMTSVTAADTAVYYCARVRAYSGIGLDGTDVWGQGTTVTVSS
VL: DIVMTQSPLSLPVTPGEPASISCKSSQSLLYSNGYAYLDWYLQRPGQSPQLLIYLGSNRASGVPDRFSGSGSGTDFTLKISRVEAEDVGVYYCMQALQTPLTFGGGTKVEIKR
binding result [1]: no binding (tested: 1000 nM)
Kd [2]: 0.99 nM
koff [2]: 0.000433 s⁻¹
kon [2]: 438000 M⁻¹ s⁻¹
Kd [3]: 0.82 nM
koff [3]: 0.000421 s⁻¹
kon [3]: 511000 M⁻¹ s⁻¹
Kd [4]: 21.1 nM
koff [4]: 0.00468 s⁻¹
kon [4]: 222000 M⁻¹ s⁻¹
Kd [5]: 19.8 nM
koff [5]: 0.00451 s⁻¹
kon [5]: 228000 M⁻¹ s⁻¹

B5: Antibody E6 (antibody, human IgG1, kappa, L234A L235A, V domains shown)
VH: QVQLQESGPGLVRPSETLSLTCTVSGGSIRNYYWSWIRQPPGKGLEWIGFIYYNGRTFYNPSLKSRVTISLDKSKNQFSLKMTSVTAADTAVYYCARVRAYSGIGLDGTDVWGQGTTVTVSS
VL: DIVMTQSPLSLPVTPGEPASISCKSSQSLLYSNGYAYLDWYLQRPGQSPQLLIYLGSNRASGVPDRFSGSGSGTDFTLKISRVEAEDVGVYYCMQALQTPLTFGGGTKVEIKR
binding result [1]: no binding (tested: 1000 nM)
Kd [2]: 1.03 nM
koff [2]: 0.000386 s⁻¹
kon [2]: 374000 M⁻¹ s⁻¹
Kd [3]: 0.88 nM
koff [3]: 0.000375 s⁻¹
kon [3]: 429000 M⁻¹ s⁻¹
Kd [4]: 41 nM
koff [4]: 0.00774 s⁻¹
kon [4]: 189000 M⁻¹ s⁻¹
Kd [5]: 41.6 nM
koff [5]: 0.00729 s⁻¹
kon [5]: 175000 M⁻¹ s⁻¹

B6: Antibody E3 (antibody, human IgG1, kappa, L234A L235A, V domains shown)
VH: QVQLQESGPGLVRPSETLSLTCTVSGGSIRNYYWSWIRQPPGKGLEWIGFIYYNGRTFYNPSLKSRVTISLDMSKNQFSLKMTSVTAADTAVYYCARVRAYSGIGLDGTDVWGQGTTVTVSS
VL: DIVMTQSPLSLPVTPGEPASISCKSSQSLLYSNGYAYLDWYLQRPGQSPQLLIYQGSNRASGVPDRFSGSGSGTDFTLKISRVEAEDVGVFYCMQALQTPLTFGGGTKVEIKR
binding result [1]: no binding (tested: 1000 nM)
Kd [2]: 0.96 nM
koff [2]: 0.000371 s⁻¹
kon [2]: 385000 M⁻¹ s⁻¹
Kd [3]: 0.78 nM
koff [3]: 0.000366 s⁻¹
kon [3]: 472000 M⁻¹ s⁻¹
Kd [4]: 17.3 nM
koff [4]: 0.00291 s⁻¹
kon [4]: 168000 M⁻¹ s⁻¹
Kd [5]: 16.9 nM
koff [5]: 0.00288 s⁻¹
kon [5]: 170000 M⁻¹ s⁻¹

B7: Antibody E7 (antibody, human IgG1, kappa, L234A L235A, V domains shown)
VH: QVQLQESGPGLVRPSETLSLTCTVSGGSIRNYYWSWIRQPPGKGLEWIGFIYYNGRTFYNPSLKSRVTISLDTSKNQFSLKMTSVTAADTAVYYCARVRAYSGIGLDGTDVWGQGTTVTVSS
VL: DIVMTQSPLSLPVTPGEPASISCKSSQSLLYSNGYAYLDWYLQRPGQSPQLLIYQGSNRASGVPDRFSGSGSGTDFTLKISRVEAEDVGVFYCMQALQTPLTFGGGTKVEIKR
binding result [1]: no binding (tested: 1000 nM)
Kd [2]: 1.2 nM
koff [2]: 0.000453 s⁻¹
kon [2]: 378000 M⁻¹ s⁻¹
Kd [3]: 1.18 nM
koff [3]: 0.000552 s⁻¹
kon [3]: 468000 M⁻¹ s⁻¹
Kd [4]: 21.9 nM
koff [4]: 0.00346 s⁻¹
kon [4]: 158000 M⁻¹ s⁻¹
Kd [5]: 21.2 nM
koff [5]: 0.00337 s⁻¹
kon [5]: 159000 M⁻¹ s⁻¹

B8: Antibody E5 (antibody, human IgG1, kappa, L234A L235A, V domains shown)
VH: QVQLQESGPGLVRPSETLSLTCTVSGGSIRNYYWSWIRQPPGKGLEWIGFIYYNGRTFYNPSLKSRVTISLDKSKNQFSLKMTSVTAADTAVYYCARVRAYSGIGLDGTDVWGQGTTVTVSS
VL: DIVMTQSPLSLPVTPGEPASISCKSSQSLLYSNGYAYLDWYLQRPGQSPQLLIYQGSNRASGVPDRFSGSGSGTDFTLKISRVEAEDVGVFYCMQALQTPLTFGGGTKVEIKR
binding result [1]: no binding (tested: 1000 nM)
Kd [2]: 1.02 nM
koff [2]: 0.000336 s⁻¹
kon [2]: 331000 M⁻¹ s⁻¹
Kd [3]: 0.87 nM
koff [3]: 0.000355 s⁻¹
kon [3]: 406000 M⁻¹ s⁻¹
Kd [4]: 38.2 nM
koff [4]: 0.00471 s⁻¹
kon [4]: 123000 M⁻¹ s⁻¹
Kd [5]: 37.8 nM
koff [5]: 0.00459 s⁻¹
kon [5]: 121000 M⁻¹ s⁻¹
